Data on one molecule can be found in PMC8184781, “A histone H3K4me1-specific binding protein is required for siRNA accumulation and DNA methylation at a subset of loci targeted by RNA-directed DNA methylation” (Nature Communications, 2021).

The target in the assay is H4K20me1 peptide (monomethyllysine at K20). In words: ITC; Microcal PEAQ-ITC; peptide (about 1.0–1.5 mM) and protein (about 0.8–0.12 mM as printed) in 100 mM NaCl, 20 mM HEPES pH 7.0, 2 mM β-mercaptoethanol; 20 °C. Conditions: both partners purified.

B1: RDM15 Tudor domain (residues 598–662) (domain or fragment, Arabidopsis thaliana, UniProt Q8GUP3 598-662, looked up)
chain: LGQGKASGESLVGSRIKVWWPMDQAYYKGVVESYDAAKKKHLVIYDDGDQEILYLKNQKWSPLDE
notes: A Se-Met labelled form was also made; the structure was solved by SAD, so the crystal may hold the Se-Met protein; also called C-terminal Tudor domain of RDM15; source: E. coli BL21(DE3), purified (HisTrap, ulp1 digestion, second HisTrap, Superdex G75)
On to B1, for which the Kd came out at 22.9 µM.

As usually defined, the Kd is the free concentration of one partner at which half of the binding sites on the other are occupied at equilibrium, for simple one-to-one binding.
